Reference: the RNAGym collection of RNA variant scans (doi:10.1073/pnas.2313332121)

B1: TPR t1 (parent)
chain: GACCAAUCUGCCCUCAGAGCUCGAGAACAUCUUCGGAUGCAGAGGAGGCAGGCUUCGGUGGCGCGAUAGCGCCAACGUCCUCAACCUCCAAUGCAUCCCACCACAUGAUGAUGCCUGAAGAGCCUUGGUUUUUUG

Variants of: B1
Assay: polymerase ribozyme fitness, log enrichment relative to wild type (log ratio); higher = more active; in vitro selection for triplet polymerase activity
Method in brief: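 Mutant libraries of both subunits of a heterodimeric triplet polymerase ribozyme were PCR-built, transcribed, and selected once in triplicate, with frozen incubation at −7 °C and capture of gel-excised extended constructs on streptavidin beads before RT-PCR. Illumina sequencing of input and output libraries was filtered to genotypes with ≥10 input reads and ≥1 read per output. Fitness is the logarithm of genotype enrichment over wild-type enrichment, using inverse-variance-weighted replicate averages. The logarithm is base 2.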

Point of comparison: GACCAAUCUGCCCUCAGAGAUCGAGAAAAUCUUCGGAUGCAGAGGACGCAGGCUUCGGUGGCGCGAUAGCGCCAACGUCCUCAACCUCCAAUGCAUUCCACCACAUGAUCAUGCCUGAAGAGCCUUGGUUUUUUG [C20A C28A G47C C97U G110C], “polymerase ribozyme fitness (log ratio)” value -6.66. Against it:
- GACCAAUCAGACCUCAGAGCUCGAGAACAUCUUCGGAUGCAUAGGAGGCAGGCUUCGGUGGCGUGAUAGCGCCAACGUCCUCAACCUCCAAUGCAUCCCACCACAUGAUGAUGCCUGAAGAGCCUUGGUUUUUUG [U9A C11A G42U C64U] — higher, -1.3
- GACCAAUCUGCCCUCAGAGCUCGAGAACAUCUUCGGAUGCAGAGGAGGCAGGCUUCGGUGGCGCGAUAGCGCCAACCUCCUCAACCUCCAAUGCAUUCCACCACAUGAAGAUGCCUGAAGAGCCUUGGUUUUUUG [G77C C97U U109A] — higher, -5.64
- GACCAAUCUGCCCUCAGAGCUCGAGAACCUCUUCGGAUGCAGAGGAGGCUGGCUUCGGUGGCGCGAUAGCGCCAACGUCCUCAACCUCCAAUGCAUCCCACCAAAUGAUGAUGGCUGAAGAGCCUUGGUUUUUUG [A29C A50U C104A C114G] — lower, -8.27
- GACCAAUCUGCCCUCAGAGCACGAGAACAUCUUCGGAUGCAGAGGAGGCAGGCUUCGGUGGUGCGAUAGCGCCAACGUCCUCAACCUCCAAUGCAUCCCACCACAUGAUGAUGCCUGAAGAGCCUUGGUUUUUUG [U21A C62U] — higher, -0.421
- GACCAAUCUGCCCUCAGAGCUCGAGAACAUCUUCGGAUGCAUAGGAGGCAGGCUUCGGUGGCGCGAUAGCGCCAACGUCCUCAACCUCCAAUACAUCCCACCACAUGAUGAUGCCUGAAGAGCCUUGGUUUUUUG [G42U G93A] — higher, -2.14
- GACAAAUCUGCCCUCAGAGCGCGAGAACAUCUUCGGAUGCAGAUGAGGCAGGCUUCGGUGGCGCGAUAGCGCCAACGUCCUAAACCUCCAAUGCAUCCCACCACAUGAUGAUGCCUGAAGAGCGUUGGUUUUUUG [C4A U21G G44U C82A C124G] — higher, -3.89
- GACCAAUCUGCCUUCAGAGCUCGAGAACAUCUUCGGAUGCAGAGGAGGCAGGCUUCGGUGGCGUGAUAGCGCCAACGUCCUCAACCUCCAACGCACCCCACCACAUGAUGAUGCCUGAAGAGCCUUGGUUUUUUG [C13U C64U U92C U96C] — higher, -1.14
- GACCAAUCUGCCCUCAGAGCUCGAGAACAUCUUCGGAUGCAGAGGAGGCAGGGUUCGGUGGCGCGAUAGCGCCAACGUCCUCAACCUCCAAUGCAUCCCACCACAUGAUGAUGCCUGAAGAGCUUUGGAUUUUUG [C53G C124U U129A] — higher, -0.596
- GACCAAUCUGCCCUCAGAGCUCGAGAACAUCUUCGGAUGCAGAGGAGGCAUGCUUCGGUGGCGCGAUAGCACCAACGUCCUCAAACUCCAAUGCAUCCCAUCACAUGAUGAUGCCUGAAGAGCCUUGGUUUUUUG [G51U G71A C85A C101U] — lower, -7.55
- GACCAAUCUGCCCUCAGAGCUCGAGAACAUCUUCGUAUGCAGAGGAGGCAGGCUUCGGUGGCGCGAUAGCGACAACGUCCUCAAACUCCAAAGCAUCCCACCACAUGAUGAAGCCUGAAGAGCCUUGGAUUUUUG [G36U C72A C85A U92A U112A U129A] — higher, -5.86
- GACCAAUCUGCCCUCAGAGCUCGAGAACAUCUUCGGAUGCAGAGGAGGCAGGCUUCGGUGGCGCGAUAGCGCCAACGUCCUCAACCUCCAAUGCAUCCCACCAAAUGAUGAUGCCUCAAGAGCCUUGGUUCUUUG [C104A G117C U131C] — higher, -4.93
- GACCAAUCUGCCCUCAGAGCUCGAGAACAUCUUCGGAUGCAGAGGAGGCAGGCUUGGAUGGCGCGAUAGCGCCAACAUCCUCAACCUCCAAUGCAUCCCACCACAUGAUGAUGCCUGAAGAGCCUUGGUUUUUUG [C56G G58A G77A] — higher, 0.427
- GACCAAUCUGCCCUCAGAGCUCGAGAACAUCUUCGGAUGCAGAGGAGGCAGGCUUCGGUGGCGCGAUAGCGCCAACGUCCUCCACCUCCAAUGCAUCCCACCAAAUGAUGAUGCCUGAAGAGCCUUGGUUUUUUG [A83C C104A] — higher, -1.32
- GACCAAUCUGCCCUCAGAGCUCGAGAACAUCUUCGGAUGCAGAGGAGGCAGGCUUCGGUGGCGCGAUAGCGCCAACGUCCUAAACCUCCAAUGCAUCCCACCACAUGAUGAUGCAUGAAGAGCCUUGGUUUUUUG [C82A C115A] — higher, -1.19
- GACCAAUCUGCCCUCAGAGCUCGAGAACGUCUUCGGUUGCAGAGGAGGCAGGCUUCGGUGUCGCGAUAGCGCCAACGUCCUCAACCUCCAAUGCAUCCCACCACAUGAUGAUGCCUGAAGAGCCUUGGUUUUUUG [A29G A37U G61U] — higher, -1.98
- GACCAAUCUGCCCUAAGAGCUCGAGAACAUCUUCCGAUGCAGAGGAGGCAGGCUUCGGUGGCGCGAUAGCGCCAACGUCCUCAACCACCAAUGCAUCCCACCACAUGAUGAUGCCUGAAGAGCCUUGGUUUUUUG [C15A G35C U87A] — higher, -5.96
- GACCAAUCUGCCCUCAGAGCUCGAGAACAUCUUCGGAUGCAGAGGAGGCAGGCUUAGGUGGCGCGAUAGCGCCAACGUCCUCAACCUCCAAUGCAUCCCACCACAUGAUGAUGCCUGAAGGGCCUUGGUUUUUUG [C56A A121G] — higher, 1.77
- GACCAAUCUGCCGUCAGAGCUCGAGAACAUCUUCGGAUGCAGAGGAGCCAGGCUUCGGUGGCGCGAUAGCGCCAACGUCCUCAACCUCCAAUGCAUCCCACCACACGAUGAGGCCUGAAGAACCUUGGUUUUUUA [C13G G48C U106C U112G G122A G135A] — higher, -2.17
- GACCAAUCUGCCCUCAGAGCUCGAGUACAUCUUCGGAUGCAGAGGAGGCAGGCUUCGGUGACGCGAUAGCGCCAACGUCCUCAACCUCCAAUGCAUCCCACCACAUGAUGAUGCCUGAAGAGCCUUGGUUUUUUG [A26U G61A] — higher, -3.03
- GACCAAUCUGCCCUCAGAGCUCGAGAACAUCUUCGGAUGCAGAGGAGGCAGGCUUCGGUGGCGCGAUAGCGCCAACGUCCUCAAUCUCCAAUGCAUCCCAACAAAUGAUGAUGCCUGAAGAGCCUUGGUUUUUUG [C85U C101A C104A] — higher, -3.57
